{"source": "patent US11155596B2", "about": "“Polypeptide” (AFFIBODY AB, priority 2016, dated 2021)", "key": {"[1]": {"system": "PD-L1 expressing MDA-MB-231 cells", "test": "Cell binding analysis by FACS, MDA-MB-231 cells", "type": "cell-based", "details": "0.625 μg/ml complex or antibody (anti-PD-L1 antibody 1 μg/ml), negative control 69", "protocol": "Cells incubated with buffer alone were used as negative controls. The cells were incubated for 1 h at 8° C. in the dark, washed twice with 100 μl staining buffer, and resuspended in 100 μl of staining buffer containing 2.5 μg/ml of a goat-anti-human IgG-Alexa488 (Molecular Probes, cat. no. A11013) or, for cells stained with the positive control antibody, goat anti-mouse IgG-Alexa647 antibody (Life Technologies, cat. No. A21236). The cells were incubated for 1 h at 8° C. in the dark, washed twice with 100 μl staining buffer and resuspended in 300 μl of staining buffer. Data from 10,000 cells were obtained using a FACS Calibur ([…]) and the data was analyzed using Flowing software 2.5.0 (Turku University). Mean fluorescence intensity (MFI) was used as a read out of binding capacity."}, "[2]": {"test": "Circular dichroism (CD) spectroscopy, variable temperature measurement", "type": "physicochemical", "details": "1 mM EDTA, pH 7.2; for Tm (° C.): 0.5 mg/ml in 20 mM HEPES, VTM 20 to 90° C. at 221 nm; for refolding, CD spectra before and after heating to 90° C.: 20 mM HEPES", "protocol": "Circular dichroism (CD) spectroscopy analysis: Two purified Z variants with a C-terminal cysteine, Z15168-Cys (SEQ ID NO:809) and Z15169-Cys (SEQ ID NO:810), were diluted to 0.5 mg/ml in 20 mM HEPES, 1 mM EDTA, pH 7.2. For each diluted Z variant, a CD spectrum at 250-195 nm was obtained at 20° C. In addition, a variable temperature measurement (VTM) was performed to determine the melting temperature (Tm). In the VTM, the absorbance was measured at 221 nm while the temperature was raised from 20 to 90° C., with a temperature slope of 5° C./min. A new CD spectrum was obtained at 20° C. after the heating procedure in order to study the refolding ability of the Z variants. The CD measurements were performed on a Jasco J-810 spectropolarimeter (Jasco Scandinavia AB) using a cell with an optical path length of 1 mm.\nCircular dichroism (CD) spectroscopy analysis: A subset of the purified Hiss-tagged Z variants were analyzed by CD spectroscopy as described in Example 3, but with the exceptions that the analysis buffer was PBS and that the temperature was raised to 80° C. in the VTM."}, "[3]": {"system": "MDA-MB-231 cells co-cultivated with PBMC", "test": "Co-culture of MDA-MB-231 and PBMC (mixed lymphocyte assay)", "type": "cell-based", "details": "six days co-culture with PBMC; 200-0.064 nM", "protocol": "Co-culture of MDA-MB-231 and PBMC: A mixed lymphocyte assay was used to analyze if the Ipi-based complexes could affect proliferation or the cytotoxic effect of T-cells and thereby increase the elimination of cancer cells. Herein, peripheral blood mononuclear cells (PBMC) and MDA-MB-231 cells were co-cultivated for six days and the number of T-cells and cancer cells were assessed. 20000 MDA-MB-231 cells, cultivated in DMEM containing 10% FBS, were pipetted per well of a flat-bottomed 96-well plate and were left to adhere to the bottom of the well by incubation at 37° C. in a humidified 5% CO2 atmosphere. Day 2 of the experiment, serial dilutions (200-0.064 nM) of the Ipi-based complexes were prepared in a separate plate using RPM11640 with L-glut (Lonza) supplemented with 10% FCS, and 1% Pen-Strep (Lonza, cat. no. DE17-603E). The DMEM medium was discarded from the MDA-MB-231 cells and 100 μl of the diluted complexes were added. PBMC were prepared form a buffy coat using Ficoll Paque PLUS (GE Healthcare, cat no. 17-1440-02). In brief, the buffy coat was diluted 2× in PBS. […] The cells were counted and adjusted to 1 million cells per ml in supplemented RPMI medium. […] At day 7 of the experiment, the number of MDA-MD-231 cells and CD3+ T-cells were counted by FACS. […]"}}}
{"substance": "Lam: control antibody having the same CDR sequences and specificity as PD-1 targeting pembrolizumab; SEQ ID NO:815 and 816", "values": [{"measurement": "MFI", "setting": "[1]", "value": 62}]}
{"substance": "Z15168-Cys: Z13091 mutated to start with AE instead of VD, with C-terminal addition of VDC", "values": [{"measurement": "Tm (° C.)", "setting": "[2]", "value": 50, "unit": "°C"}, {"measurement": "refolding, CD spectra before and after heating to 90° C.", "setting": "[2]", "value": "Reversible folding"}]}
{"substance": "Z15169-Cys: Z13156 mutated to start with AE instead of VD, with C-terminal addition of VDC", "values": [{"measurement": "Tm (° C.)", "setting": "[2]", "value": 58, "unit": "°C"}, {"measurement": "refolding, CD spectra before and after heating to 90° C.", "setting": "[2]", "value": "Reversible folding"}]}
{"substance": "ipilimumab [reference compound]", "values": [{"measurement": "number of MDA-MB231 cells", "setting": "[3]", "value": "did not induce a concentration dependent decrease of the cancer cells"}]}
